Experimental data from paper PMC5042879 (The Biochemical journal, 2016).

B1: GST-β-adducin tail (amino acids 335–726) (domain or fragment, UniProt P35612 335-726, looked up)
chain: EKHRPHEVGSVQWAGSTFGPMQKSRLGEHEFEALMRMLDNLGYRTGYTYRHPFVQEKTKHKSEVEIPATVTAFVFEEDGAPVPALRQHAQKQQKEKTRWLNTPNTYLRVNVADEVQRSMGSPRPKTTWMKADEVEKSSSGMPIRIENPNQFVPLYTDPQEVLEMRNKIREQNRQDVKSAGPQSQLLASVIAEKSRSPSTESQLMSKGDEDTKDDSEETVPNPFSQLTDQELEEYKKEVERKKLELDGEKETAPEEPGSPAKSAPASPVQSPAKEAETKSPLVSPSKSLEEGTKKTETSKAATTEPETTQPEGVVVNGREEEQTAEEILSKGLSQMTTSADTDVDTSKDKTESVTSGPMSPEGSPSKSPSKKKKKFRTPSFLKKSKKKEKVES

Experiments:
[1] = target: T1, (His)6-tagged erythrocyte cytoplasmic domain of band 3 (cdb3), wild type (UniProt P02730 1-403); experiment: pull-down
T1 sequence (looked up): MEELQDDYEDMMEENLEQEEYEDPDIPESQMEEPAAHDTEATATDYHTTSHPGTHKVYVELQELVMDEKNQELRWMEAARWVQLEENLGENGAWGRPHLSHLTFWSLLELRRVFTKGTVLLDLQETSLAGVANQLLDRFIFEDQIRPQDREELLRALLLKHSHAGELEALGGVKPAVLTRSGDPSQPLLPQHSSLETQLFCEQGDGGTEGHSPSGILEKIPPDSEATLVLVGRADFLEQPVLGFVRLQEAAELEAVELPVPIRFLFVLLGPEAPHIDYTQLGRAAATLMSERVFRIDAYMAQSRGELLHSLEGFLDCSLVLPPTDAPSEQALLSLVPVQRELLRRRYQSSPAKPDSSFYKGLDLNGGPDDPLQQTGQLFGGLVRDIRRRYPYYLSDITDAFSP

[2] = target: B1; experiment: pull-down

B1
Kd [1]: 260 nM

B2: (His)6-tagged kidney cytoplasmic domain of band 3 (kidney cdb3) (domain or fragment, UniProt P02730-2 1-338, looked up)
chain: MDEKNQELRWMEAARWVQLEENLGENGAWGRPHLSHLTFWSLLELRRVFTKGTVLLDLQETSLAGVANQLLDRFIFEDQIRPQDREELLRALLLKHSHAGELEALGGVKPAVLTRSGDPSQPLLPQHSSLETQLFCEQGDGGTEGHSPSGILEKIPPDSEATLVLVGRADFLEQPVLGFVRLQEAAELEAVELPVPIRFLFVLLGPEAPHIDYTQLGRAAATLMSERVFRIDAYMAQSRGELLHSLEGFLDCSLVLPPTDAPSEQALLSLVPVQRELLRRRYQSSPAKPDSSFYKGLDLNGGPDDPLQQTGQLFGGLVRDIRRRYPYYLSDITDAFSP
Kd [2]: 280 nM
